These results are taken from PMC11190351 (Plant Direct, 2024).

This data set deals with the molecule itself. The data set is described as follows: SEC.

B1: Chlamydomonas reinhardtii alpha amylase 2 (AMA2), full-length recombinant enzyme (enzyme, UniProt A0A2K3DGK5 1-706, looked up)
chain: MDRSLLSRTSPRMQLGRPQQLPPPTVPLAQVPRLQRRCVVGSRVCQPVVAVRPGRASAGRGGRLVVSSVDMSNSPLSSMDAGEGLDIMFDNNSDAECTVVTVEGKDKAHLLMSLTGGFSSAGLTVISASITSDDGRVLDVFRVQTADGKKVPEEQFPSVREHILSVTATSSRSSMPAIYGIVAAAEVERLKPLRSQSTQNDVDALELAAAEMTQAVAELVATERDIIRMRASNADARTLQTKEANRTEAAAGLERKMAAMQAVLAARRNLATEPEKPKSPTEKLLETLKPPTPMRAAAGAGSGSGSEILLQAFNWESHRQKLYKQLMGRVKDISDAGFTGVWMPPPSDSVSPQGYLPRDLYSLDSAYGSEAELRELIAAFHQNNIKVIADIVVNHRCANSQGSDGKWNKFGGRLAWDASAICSNNPSFGGRGNPKQGDDYAAAPNIDHSQERIRNDIVQWMKYLRNSIGFDGWRFDFVRGYLGSYCKQYIDETVPAMAFGEYWDSCEYTDGVLNYNQDAHRQRTVNWCDSTGGTSAAFDFTTKGILQEAVGRREYWRLVDSQGRPPGVMGMWPSRAITFIDNHDTGSTLNHWPFPSRNLPEGYAYILTHPGTPCVFYDHFYQEENNLRKIILDLLKVRRRNGLNARSKVVMKKSAADVYAAMIDDKVAVKLGPGDWSPNQSGIKVNGKELKVAASGFQFAVWEGQH
What is called stoichiometry N is a count of units in the complex or per binding partner. On to B1, for which the “stoichiometry N” value turned out to be 2.
